Legend:
[1] = target: UbcH5BS~Ub (UbcH5B C85S covalently ester-linked to the C-terminus of ubiquitin) (UniProt P62837;P0CG48, C85S); test: SPR
UbcH5BS D117A~Ub = UbcH5BS D117A~Ub (UniProt P62837;P0CG48, C85S | D117A); test: SPR
SEC = target: the molecule itself; test: SEC
UbcH5B = UbcH5B (UniProt P62837 1-147); test: SPR

Binder | Kd [1] [µM] | stoichiometry N (SEC) | also measured
GST-BIRC3(541–C) (domain or fragment) DLPVEEQLRRLQEERTCKVCMDKEVSIVFIPCGHLVVCKDCAPSLRKCPICRSTIKGTVRTFLS | 5 | – | –
MDM2(428–C)–MDMX(428–C) (complex) chain 1: SSLPLNAIEPCVICQGRPKNGCIVHGKTGHLMACFTCAKKLKKRNKPCPVCRQPIQMIVLTYFP chain 2: EDCQNLLKPCSLCEKRPRDGNIIHGRTGHLVTCFHCARRLKKAGASCPICKKEIQLVIKVFIA | 130 | – | –
BIRC7 I284A (as in size exclusion chromatography and ubiquitination assays) (enzyme) MGPKDSAKCLHRGPQPSHWAAGDGPTQERCGPRSLGSPVLGLDTCRAWDHVDGQILGQLRPLTEEEEEEGAGATLSRGPAFPGMGSEELRLASFYDWPLTAEVPPELLAAAGFFHTGHQDKVRCFFCYGGLQSWKRGDDPWTEHAKWFPSCQFLLRSKGRDFVHSVQETHSQLLGSWDPWEEPEDAAPVAPSVPASGYPELPTPRREVQSESAQEPGGVSPAEAQRAWWVLEPPGARDVEAQLRRLQEERTCKVCLDRAVSIVFVPCGHLVCAECAPGLQLCPACRAPVRSRVRTFLS | – | 2 | –
BIRC7 F296H (as in size exclusion chromatography and ubiquitination assays) (enzyme) MGPKDSAKCLHRGPQPSHWAAGDGPTQERCGPRSLGSPVLGLDTCRAWDHVDGQILGQLRPLTEEEEEEGAGATLSRGPAFPGMGSEELRLASFYDWPLTAEVPPELLAAAGFFHTGHQDKVRCFFCYGGLQSWKRGDDPWTEHAKWFPSCQFLLRSKGRDFVHSVQETHSQLLGSWDPWEEPEDAAPVAPSVPASGYPELPTPRREVQSESAQEPGGVSPAEAQRAWWVLEPPGARDVEAQLRRLQEERTCKVCLDRAVSIVFVPCGHLVCAECAPGLQLCPICRAPVRSRVRTHLS | – | 2 | –
BIRC7 R286A (as in size exclusion chromatography and ubiquitination assays) (enzyme) MGPKDSAKCLHRGPQPSHWAAGDGPTQERCGPRSLGSPVLGLDTCRAWDHVDGQILGQLRPLTEEEEEEGAGATLSRGPAFPGMGSEELRLASFYDWPLTAEVPPELLAAAGFFHTGHQDKVRCFFCYGGLQSWKRGDDPWTEHAKWFPSCQFLLRSKGRDFVHSVQETHSQLLGSWDPWEEPEDAAPVAPSVPASGYPELPTPRREVQSESAQEPGGVSPAEAQRAWWVLEPPGARDVEAQLRRLQEERTCKVCLDRAVSIVFVPCGHLVCAECAPGLQLCPICAAPVRSRVRTFLS | – | 2 | –
RNF2(1–114)–BMI1(1–109) (complex) chain 1: MSQAVQTNGTQPLSKTWELSLYELQRTPQEAITDGLEIVVSPRSLHSELMCPICLDMLKNTMTTKECLHRFCADCIITALRSGNKECPTCRKKLVSKRSLRPDPNFDALISKIY chain 2: MHRTTRIKITELNPHLMCVLCGGYFIDATTIIECLHSFCKTCIVRYLETSKYCPICDVQVHKTRPLLNIRSDKTLQDIVYKLVPGLFKNEMKRRRDFYAAHPSADAANG | – | – | Kd (UbcH5B): 91 µM

The next lines start with results.

Kd [1] [µM] | Binder | stoichiometry N (SEC) | also measured
181 | GST-BIRC7 full length (enzyme) MGPKDSAKCLHRGPQPSHWAAGDGPTQERCGPRSLGSPVLGLDTCRAWDHVDGQILGQLRPLTEEEEEEGAGATLSRGPAFPGMGSEELRLASFYDWPLTAEVPPELLAAAGFFHTGHQDKVRCFFCYGGLQSWKRGDDPWTEHAKWFPSCQFLLRSKGRDFVHSVQETHSQLLGSWDPWEEPEDAAPVAPSVPASGYPELPTPRREVQSESAQEPGGVSPAEAQRAWWVLEPPGARDVEAQLRRLQEERTCKVCLDRAVSIVFVPCGHLVCAECAPGLQLCPICRAPVRSRVRTFLS | – | Kd (UbcH5BS D117A~Ub): 191 µM
136 | GST-BIRC7(239–C) (domain or fragment) VEAQLRRLQEERTCKVCLDRAVSIVFVPCGHLVCAECAPGLQLCPICRAPVRSRVRTFLS | – | –
